Reference: US20190127461A1 (ORDER MADE MEDICAL RESEARCH, published 2019)

Legend:
[1] = target: T1, ICD4 (region consisting of amino acids at positions 196 to 299 of MCT5) (human); assay: ELISA, hybridoma culture supernatant on immobilized ICD4, POD-labeled anti-mouse immunoglobulin
T1 construct: Immunogen and ELISA coating antigen
T1 chain: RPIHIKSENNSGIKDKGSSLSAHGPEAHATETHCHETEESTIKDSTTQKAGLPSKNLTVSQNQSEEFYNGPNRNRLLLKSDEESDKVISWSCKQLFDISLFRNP
Protocol: Blood samples which had been collected from mice through their tail veins and diluted 1/160,000 with PBS(-), or alternatively, culture supernatants collected from wells in which hybridomas were growing were analyzed for their antibody titer. ICD4 was diluted with PBS(-) and dispensed into 96-well ELISA plates (Nunc) in an amount of 50 ng per well, and immobilized onto the plate surface by being allowed to stand at room temperature for 1 hour. Then, after the plates were washed three times with 350 μL of TBS-T (25 mM Tris, 150 mM NaCl, 0.05% (v/v) Tween 20, pH 7.4), PBS-T containing 5% skimmed milk was dispensed in a volume of 300 μL per well to conduct blocking for 1 hour at room temperature. After washing with TBS-T, the diluted blood samples or the culture supernatants were dispensed into the ICD4-immobilized ELISA plates and reacted for 1 hour at room temperature. After washing with TBS-T, a 10,000-fold dilution of peroxidase (hereinafter abbreviated as POD)-labeled anti-mouse immunoglobulin antibody (BETHYL) was dispensed in a volume of 100 μL per well and reacted for 1 hour at room temperature. […] After the reaction was stopped with 1.5 N sulfuric acid, the plates were measured for absorbance at 490 nm with a plate reader (Molecular Devices). […]

[2] = target: T2, MCT5 (Monocarboxylate transporter 5) (human, UniProt O15374 1-487); assay: flow cytometry on intact HCT116 cells, Alexa 488-labeled secondary antibody; negative control is cells without IMI4C4a
T2 construct: Membrane transporter on intact human cancer cells: MCF7-MCT5 (overexpressing), and MDA-MB231, HCT116 and SK-BR3 (endogenous); also called native MCT5; MCT5 isoform 1
Protocol: HCT116 cells (which are human colorectal cancer cells) were cultured to reach 90% confluency. After being washed twice with PBS(-), the cells were collected with Accutase (Life Technologies) and suspended at 4×10⁵ cells in […] of PBS(-) containing 1% FBS. To this suspension, the antibody IMI4C4a was added at a final concentration of […] and reacted on ice for 60 minutes. For use as a control, a cell suspension free from the antibody IMI4C4a was prepared.

T2 sequence (O15374 whole entry, canonical isoform): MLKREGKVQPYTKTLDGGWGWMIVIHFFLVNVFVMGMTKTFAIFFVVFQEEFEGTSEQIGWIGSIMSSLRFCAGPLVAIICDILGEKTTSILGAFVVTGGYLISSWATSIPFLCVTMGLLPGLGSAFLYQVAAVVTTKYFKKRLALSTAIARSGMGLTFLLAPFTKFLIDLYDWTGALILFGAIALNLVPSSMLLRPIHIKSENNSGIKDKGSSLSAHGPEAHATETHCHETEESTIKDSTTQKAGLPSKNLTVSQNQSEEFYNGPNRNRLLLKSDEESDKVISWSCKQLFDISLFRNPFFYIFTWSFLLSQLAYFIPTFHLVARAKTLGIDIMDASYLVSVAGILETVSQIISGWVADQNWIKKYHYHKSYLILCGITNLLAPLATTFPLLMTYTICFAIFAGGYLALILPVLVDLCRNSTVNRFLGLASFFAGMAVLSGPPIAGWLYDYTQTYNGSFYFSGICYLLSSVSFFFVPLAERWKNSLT

binding result [1]: binds | binding result [2]: binds
B1: anti-MCT5 monoclonal antibody of clone No. IMI4C4a (antibody, V domains shown)
VH: EVQLQQSGAELVRPGALVKLSCKASGFNIKDYYMFWVKQRPEQGLEWIGWIDPENGNTIFDPKFQGKASITADTSSNTAYLQLSSLTSEDTAVYYCARMITTYYYAMDFWGQGTSVTVSS
VL: QLVLTQSSSASFSLGASAKLTCTLSSQHSTYTIEWYQQQPLKPPKYVMELKKDGSHSTGDGIPDRFSGSSSGADRYLSVSSIQPEDEAIYICGVGYTIKEQFVYVFGGGTK
notes: Mouse monoclonal antibody from a hybridoma, detected with anti-mouse IgG; also called antibody IMI4C4a; Mouse-Mouse hybridoma IMI4C4a
